Data set [1] deals with T1, rat albumin (Rattus norvegicus, UniProt P02770). The experiment in a line: SA08b binding assay (peptide competition ELISA), rat albumin. Also on record: purchased Sigma. The following applies: concentrations of up to 100 μM; data not shown. The source says:
(§1) Plates were blocked as described above.
(§2) Peptides corresponding to identified phage sequences were synthesized and their affinity for rat, rabbit or mouse albumin measured using the SA08b binding assay.

The target in data set [2] is T2, rabbit albumin (Oryctolagus cuniculus, UniProt P49065). In words: SA08b binding assay (peptide competition ELISA), rabbit albumin. More on the design: purchased Sigma. The following applies: for effect on SA08b peptide binding to rabbit albumin: concentrations of up to 100 μM, data not shown; for improvement in IC50 relative to core sequence of about 10 amino acids: rabbit albumin.
T2 sequence (P49065 25-608): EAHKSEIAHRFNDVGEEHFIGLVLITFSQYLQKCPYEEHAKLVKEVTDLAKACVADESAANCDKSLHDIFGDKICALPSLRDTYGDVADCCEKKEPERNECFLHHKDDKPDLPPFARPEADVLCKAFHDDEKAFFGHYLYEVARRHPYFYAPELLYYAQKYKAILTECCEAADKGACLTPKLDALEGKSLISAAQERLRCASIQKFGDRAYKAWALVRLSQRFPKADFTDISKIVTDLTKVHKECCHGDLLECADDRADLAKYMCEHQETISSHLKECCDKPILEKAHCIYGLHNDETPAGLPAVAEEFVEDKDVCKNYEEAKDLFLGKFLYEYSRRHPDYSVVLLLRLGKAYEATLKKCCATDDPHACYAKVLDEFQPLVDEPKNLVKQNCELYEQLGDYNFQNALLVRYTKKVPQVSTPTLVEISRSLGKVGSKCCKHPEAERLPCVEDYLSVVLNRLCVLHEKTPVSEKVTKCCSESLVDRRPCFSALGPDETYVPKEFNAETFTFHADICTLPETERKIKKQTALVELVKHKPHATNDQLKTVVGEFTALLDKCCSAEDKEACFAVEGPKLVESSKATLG
Source text: as §1, §2
A general note: ELISA stands for enzyme-linked immunosorbent assay.

Data set [3] deals with T2, rabbit albumin. The experiment in a line: Direct Binding ELISA, AB.Fab variants on immobilized rabbit albumin. Also on record: purchased Sigma. As to conditions: average and SD of at least 3 determinations. Here is the method:
(§3) Mouse, rat, or rabbit albumin (Sigma, St. Louis, Mo.) were immobilized onto NUNC Maxisorp™ 96-well plates at 2 ug/ml overnight at 4° C. […] AB.Fab variants were serially diluted in binding buffer and added at 100 μl per well to the immobilized albumin for 30 minutes at 25° C. Unbound AB.Fab variant was removed by washing wells with 0.05% PBS/Tween® 20 and bound AB.Fab variant was detected with goat anti-human Fab′2-HRP for 1 hour at 25° C. Bound HRP was measured with a solution of tetramethylbenzidine (TMB)/H202. After 15 minutes, the reaction was quenched by the addition of 1M phosphoric acid.
(§4) Initially we explored binding of the AB.Fab variants to immobilized albumin using a Direct Binding ELISA.

Data set [4] is described as follows: Pharmacokinetics of AB.Fab variants in rabbits (HER2 Binding ELISA). Type of data set: in vivo. The following applies: Rabbit; group mean. The protocol:
(§5) All pharmacokinetic (PK) studies were conducted according to protocols approved by the Institutional Animal Care and Use Committee at Genentech, Inc. Sprague Dawley rats were supplied by Charles River Laboratories (Hollister, Calif. USA). New Zealand White (NWZ) rabbits were supplied by Myrtle's Rabbitry (Thompson Station, Tenn. USA). BALB-c mice were supplied by Charles River (Hollister, Calif. USA).
(§6) Briefly, samples were added to microtiter wells coated with HER2ecd and incubated for 2 hours at room temperature. The wells were washed, and goat anti-huFab-HRP was added and incubated for 1 hour at room temperature. Unbound HRP was removed by washing and enzyme substrate was added to detect bound HRP. […] Concentrations of AB.Fab were extrapolated by comparison to a standard curve of the dosed molecule.
(§7) For rats and rabbits, concentration versus time profiles for each animal were fit to a two compartment model using, iterative re-weighting to estimate the pharmacokinetic parameters of Area Under the Concentration-Time Curve (AUC), Clearance (CL), Beta Half-Life (t1/2β), Volume of Distribution of the Central Compartment (V1), and Steady State Volume of Distribution (Vss) using WinNonlin® software (Version 3.2, Pharsight, Inc.; Mountain View, Calif.) and group means were calculated.

Data set [5] is described as follows: Pharmacokinetics of AB.Fab variants in rats (HER2 Binding ELISA). Type of data set: in vivo. As to conditions: Rat; group mean. Here is the method:
as §5
At pre-dose, and over the course of 7 days post-dose, plasma was collected via a cannula inserted in the jugular vein.
as §6, §7

Data set [6] has as its target T1, rat albumin. In words: Direct Binding ELISA, AB.Fab variants on immobilized rat albumin. More on the design: purchased Sigma. The following applies: average and SD of at least 3 determinations. Here is the method:
as §3, §4

Data set [7] deals with T2, rabbit albumin. The experiment in a line: Phage ELISA, phage clones on immobilized rabbit albumin. Type of data set: binding. As to conditions: pH 2.9; data not shown. Also on record: purchased Sigma. Here is the method:
Phage clones (approximately 10^11 phage) were added to Maxisorp plates coated with rat, rabbit, or human albumin or with mouse, bovine, or rhesus albumin (Sigma), as described above. The microtiter plate was washed with wash buffer and bound phage were detected following incubation with HRP/Anti-M13 Conjugate (Amerisham Pharmacia Biotech, Piscataway, N.J.).

A short description of data set [8]: Pharmacokinetics of AB.Fab variants in mice (HER2 Binding ELISA). Type of data set: in vivo. As to conditions: Mouse, group mean profile; for t1/2β: 4D5-H8 fit to one-compartment model (one half life estimate). Here is the method:
as §5
Over the course of 7 days serum was collected in 3 mice per time point by retro-orbital bleed or cardiac stick.
as §6
In mice, a group mean serum concentration versus time profile was determined, producing one estimate for pharmacokinetic parameters for each AB.Fab dosing group. […] AB.Fab variant 4D5-H8 was fit to a one compartment model and estimates for the PK parameters of AUC, CL, Half-Life (t1/2) and V1 were determined using WinNonlin® software (Pharsight, Inc., supra).

Marks after values point to notes of the source that are not given here. Where a SMILES comes first, the peptide text is derived from it. Bridges are numbered along the chain shown (N, C = ends). Where no end group is shown, it is not given here.

The term EC50 denotes the concentration at which the effect is half-maximal. A low value points to an effect from little substance. Broadly, the AUC is concentration integrated over time. As usually defined, the Vss is a proportionality between amount in the body and measured concentration, not a real space. In general, IC50 refers to the concentration that gives 50% inhibition. Read a high IC50 as lower potency.

T1 sequence (P02770 25-608): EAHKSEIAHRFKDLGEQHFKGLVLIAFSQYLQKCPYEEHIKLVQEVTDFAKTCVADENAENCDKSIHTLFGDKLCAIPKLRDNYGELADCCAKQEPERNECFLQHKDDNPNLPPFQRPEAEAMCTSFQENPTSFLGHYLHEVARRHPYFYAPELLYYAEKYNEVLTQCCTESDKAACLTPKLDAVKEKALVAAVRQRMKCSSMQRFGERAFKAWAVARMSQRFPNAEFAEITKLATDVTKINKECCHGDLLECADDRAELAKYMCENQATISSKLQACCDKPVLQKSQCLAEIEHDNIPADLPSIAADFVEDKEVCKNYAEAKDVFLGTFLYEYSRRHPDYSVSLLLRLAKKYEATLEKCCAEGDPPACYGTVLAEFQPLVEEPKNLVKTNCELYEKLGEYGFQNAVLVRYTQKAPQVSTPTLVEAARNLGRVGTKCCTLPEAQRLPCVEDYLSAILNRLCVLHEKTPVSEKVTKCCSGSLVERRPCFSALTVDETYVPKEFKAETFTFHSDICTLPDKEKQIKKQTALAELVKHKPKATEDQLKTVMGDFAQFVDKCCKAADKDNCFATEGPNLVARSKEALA

On to `CCCCCCCCCCCCCC(=O)O` [myristic acid, reference compound], for which the “effect on SA08b peptide binding to rat albumin” value (from here on “effect … to rat albumin”) in data set [1] is given as “no effect”. For the same compound, the “effect on SA08b peptide binding to rabbit albumin” value (from here on “effect … to rabbit albumin”) in data set [2] was “no effect”.
“4D5-H8: AB.Fab variant of Fab4D5 with shortened albumin-binding peptide on heavy chain, no GGGS linker (Table 12) (IEDICLPRWGCLWE; disulfide 5-11 (inferred); also: part of Fab heavy chain)” displayed an EC50 in data set [3] of 0.5 ± 0.05 µM.
For the compound “AB.Fab 4D5-H10 (DICLPRWGCLW; disulfide 3-9 (inferred); also: part of Fab heavy chain)”, in data set [4], the AUC was 33.7 ± 3.32 µg·h/mL, the CL was 13.5 ± 1.40 mL/h/kg, the V1 came to 0.0368 ± 0.00412 L/kg and the Vss worked out at 0.0987 ± 0.0141 L/kg. Besides, the t1/2β in data set [4] is 12.0 ± 2.21 h. Besides, in data set [5], the AUC was found to be 541 ± 77.9 µg·h/mL, the CL came to 9.21 ± 1.24 mL/h/kg, the V1 was 0.0446 ± 0.00204 L/kg and the Vss is 0.0753 ± 0.0092 L/kg. The compound further returned a t1/2β in data set [5] of 10.9 ± 2.86 h.
In the case of `CC[C@H](C)[C@H](NC(=O)[C@H](CC(C)C)NC(=O)[C@H](CCCNC(=N)N)NC(C)=O)C(=O)N[C@@H](CCC(=O)O)C(=O)N[C@@H](CC(=O)O)C(=O)N[C@H](C(=O)N[C@H]1CSSC[C@@H](C(N)=O)NC(=O)CNC(=O)[C@H](Cc2c[nH]c3ccccc23)NC(=O)[C@H](CCCNC(=N)N)NC(=O)[C@@H]2CCCN2C(=O)[C@H](CC(C)C)NC1=O)[C@@H](C)CC` [SA35] (Ac-RLIEDICLPRWGC-NH2; disulfide 7-13), the IC50 in data set [2] was greater than 250 µM.
“4D5-H10: AB.Fab variant made by deletion in 4D5-H4 (Table 12) (DICLPRWGCLW; disulfide 3-9 (inferred); also: part of Fab heavy chain)”: the EC50 in data set [3] was greater than 2 µM; in data set [6] it was 0.008 ± 3e-06 µM.
`CC[C@H](C)[C@H](NC(=O)[C@H](CC(C)C)NC(=O)[C@H](CCCNC(=N)N)NC(C)=O)C(=O)N[C@@H](CCC(=O)O)C(=O)N[C@@H](CC(=O)O)C(=O)N[C@H](C(=O)N[C@H]1CSSC[C@@H](C(=O)N[C@@H](CC(C)C)C(=O)N[C@@H](Cc2c[nH]c3ccccc23)C(=O)N[C@@H](CCC(=O)O)C(=O)N[C@@H](CC(=O)O)C(N)=O)NC(=O)CNC(=O)[C@H](Cc2c[nH]c3ccccc23)NC(=O)[C@H](CCCNC(=N)N)NC(=O)[C@@H]2CCCN2C(=O)[C@H](CC(C)C)NC1=O)[C@@H](C)CC` [SA22] (Ac-RLIEDICLPRWGCLWED-NH2; disulfide 7-13): the “improvement in IC50 relative to core sequence of about 10 amino acids” value in data set [2] is recorded as 60 fold.
Same read-out and setting: for `CC[C@H](C)[C@H](NC(=O)[C@H](CC(C)C)NC(=O)[C@H](CCCNC(=N)N)NC(C)=O)C(=O)N[C@@H](CCC(=O)O)C(=O)N[C@@H](CC(=O)O)C(=O)N[C@H](C(=O)N[C@H]1CSSC[C@@H](C(=O)N[C@@H](CC(C)C)C(N)=O)NC(=O)CNC(=O)[C@H](Cc2c[nH]c3ccccc23)NC(=O)[C@H](CCCNC(=N)N)NC(=O)[C@@H]2CCCN2C(=O)[C@H](CC(C)C)NC1=O)[C@@H](C)CC` [SA33] (Ac-RLIEDICLPRWGCL-NH2; disulfide 7-13) the value was “approximately 6 fold”.
With “4D5-H4: AB.Fab variant of Fab4D5 with shortened albumin-binding peptide on heavy chain, no GGGS linker (Table 12) (DICLPRWGCLWED; disulfide 3-9 (inferred); also: part of Fab heavy chain)”, in data set [3], it took 0.5 ± 0.05 µM to reach a half-maximal effect (EC50).
In the case of HSQMEDICLPRWGCLWGDEL [RB-B8], in data set [7], the “phage binding to rabbit albumin at pH 2.9” value was “no binding”.
`N[C@@H](Cc1c[nH]c2ccccc12)C(=O)O` [L-tryptophan, reference compound]: the “effect … to rat albumin” value in data set [1] was “no effect”. In addition, the “effect … to rabbit albumin” value in data set [2] is given as “no effect”.
For `CN(C)c1cccc2c(S(=O)(=O)N(C)CC(=O)O)cccc12` [dansylsarcosine, reference compound], the “effect … to rat albumin” value in data set [1] is given as “no effect”. Moreover, in data set [2], the “effect … to rabbit albumin” value is recorded as “no effect”.
With “AB.Fab 4D5-H8 (IEDICLPRWGCLWE; disulfide 5-11 (inferred); also: part of Fab heavy chain)”, in data set [8], the AUC came out at 2610 µg·h/mL, the CL worked out at 1.91 mL/h/kg, the Vss was found to be 0.0387 L/kg and the t1/2β is 14.0^b hr. Further, in data set [4], the AUC is 232 ± 62.7 µg·h/mL, the CL was found to be 1.99 ± 0.477 mL/h/kg, the V1 amounted to 0.0296 ± 0.00332 L/kg and the Vss turned out to be 0.0659 ± 0.0071 L/kg. Besides, in data set [4], the t1/2β is 36.2 ± 7.13 h. In data set [5], this compound came in with an AUC of 1890 ± 294 µg·h/mL, a CL of 2.44 ± 0.453 mL/h/kg, a V1 of 0.0458 ± 0.00811 L/kg and a Vss of 0.0859 ± 0.0154 L/kg. In data set [5], this compound displayed a t1/2β of 28.0 ± 1.88 h.
In data set [8], “AB.Fab 4D5-H4 (DICLPRWGCLWED; disulfide 3-9 (inferred); also: part of Fab heavy chain)” came in with an exposure (AUC) of 2070 µg·h/mL, a CL of 2.41 mL/h/kg, a V1 of 0.0284 L/kg and a volume of distribution (Vss) of 0.0444 L/kg. The t1/2β in data set [8] was 13.5 h. In data set [4], this compound returned an AUC of 127 ± 16.5 µg·h/mL, a CL of 3.58 ± 0.496 mL/h/kg, a V1 of 0.0305 ± 0.00167 L/kg and a Vss of 0.0822 ± 0.0102 L/kg. The same compound displayed a t1/2β in data set [4] of 28.3 ± 2.88 h. In data set [5], this compound displayed an AUC of 1450 ± 146 µg·h/mL, a CL of 3.24 ± 0.352 mL/h/kg, a V1 of 0.0522 ± 0.00421 L/kg and a Vss of 0.076 ± 0.00656 L/kg. The compound further showed a t1/2β in data set [5] of 20.7 ± 1.07 h.
QRHPEDICLPRWGCLWGDDD [RB-H1]: the “phage binding to rabbit albumin at pH 2.9” value in data set [7] was “no binding”.
Turning to `CC[C@H](C)[C@H](NC(=O)[C@H](CC(=O)O)NC(C)=O)C(=O)N[C@H]1CSSC[C@@H](C(=O)N[C@@H](CC(C)C)C(=O)N[C@@H](Cc2c[nH]c3ccccc23)C(=O)N[C@@H](CCC(=O)O)C(=O)N[C@@H](CC(=O)O)C(N)=O)NC(=O)CNC(=O)[C@H](Cc2c[nH]c3ccccc23)NC(=O)[C@H](CCCNC(=N)N)NC(=O)[C@@H]2CCCN2C(=O)[C@H](CC(C)C)NC1=O` [SA26, Ac DICLPRWGCLWED NH2] (Ac-DICLPRWGCLWED-NH2; disulfide 3-9), the “improvement in IC50 relative to core sequence of about 10 amino acids” value in data set [2] is “about 8.6 fold”.
Regarding `[Cl][Cu][Cl]` [CuCl2, reference compound], the “effect … to rat albumin” value in data set [1] is “no effect”. For the same compound, the “effect … to rabbit albumin” value in data set [2] is “no effect”.

Values taken from patent US20140294863A1, “SERUM ALBUMIN BINDING PEPTIDES FOR TUMOR TARGETING” (GENENTECH, INC., priority 2002, published 2014).
